One block for each binder: values may come before it. Where no end group is shown, it is not given here. [ ]: non-standard residue; d: D form. The star is where a group is joined. Myristoyl = CCCCCCCCCCCCCC(=O)*; Lauroyl = CCCCCCCCCCCC(=O)*; Decanoyl = CCCCCCCCCC(=O)*; NMeA = CN[C@@H](C)C(=O)O; Nle = CCCC[C@H](N)C(=O)O; Octanoyl = CCCCCCCC(=O)*
Legend:
[1] = biological target: T1, human PrRP receptor, GPR10, transfected in CHO cells (human, UniProt P49683 1-370); experiment: competition with 125I-human PrRP31 on CHO cells with transfected human GPR10
T1 construct: whole, on cells; also called human GPR10 receptor; the human receptor GPR10 in CHO cells
T1 sequence (looked up): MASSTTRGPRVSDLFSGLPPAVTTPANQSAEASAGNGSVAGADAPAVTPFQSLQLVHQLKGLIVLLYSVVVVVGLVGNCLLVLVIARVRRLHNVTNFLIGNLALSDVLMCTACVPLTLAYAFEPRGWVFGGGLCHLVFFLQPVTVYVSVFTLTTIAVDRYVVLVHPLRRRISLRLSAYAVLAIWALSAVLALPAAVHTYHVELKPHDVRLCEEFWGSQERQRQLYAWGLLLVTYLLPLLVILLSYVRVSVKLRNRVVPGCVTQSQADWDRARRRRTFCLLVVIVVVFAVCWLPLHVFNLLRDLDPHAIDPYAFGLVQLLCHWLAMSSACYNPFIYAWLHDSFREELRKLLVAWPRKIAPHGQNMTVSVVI
Experimental: CHO cells with transfected human PrRP receptor, GPR10 (Perkin Elmer, USA) were grown on 24-well plates coated with polyethyleneimine. The cells were grown to the optimal density of 40-80 thousand cells per well.
(§1) Plates were incubated for 60 minutes at room temperature. After incubation, the cells were solubilized in 0.1 mol/l solution of NaOH and the radioactivity bound to the cells was counted using a γ-counter. The experiments were performed in duplicate and repeated at least three times.

[2] = biological target: T2, rat PrRP receptor in RC-4B/C cells (rat, UniProt Q64121 1-370); experiment: competition with 125I-rat PrRP31 on RC-4B/C cells
T2 construct: whole, on cells; also called the rat receptor; GPR10
T2 sequence (looked up): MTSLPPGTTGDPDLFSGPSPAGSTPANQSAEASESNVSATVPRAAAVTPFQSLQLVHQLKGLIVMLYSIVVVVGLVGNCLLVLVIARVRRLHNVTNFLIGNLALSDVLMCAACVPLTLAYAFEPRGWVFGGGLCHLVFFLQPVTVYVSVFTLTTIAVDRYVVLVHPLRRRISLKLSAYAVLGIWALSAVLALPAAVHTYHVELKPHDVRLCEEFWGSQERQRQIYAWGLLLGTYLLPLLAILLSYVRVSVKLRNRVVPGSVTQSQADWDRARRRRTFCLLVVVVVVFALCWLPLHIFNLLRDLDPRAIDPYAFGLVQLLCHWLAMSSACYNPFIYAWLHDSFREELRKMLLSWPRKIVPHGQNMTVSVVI
Experimental: The rat pituitary cell line RC-4B/C (ATCC, Manassas, USA) was grown on 24-well plates which had their bottom coated with polyethyleneimine. The cells were grown to the optimal density of 300-450 thousand per well.
as §1
For evaluation of competitive binding experiments, the program Graph Pad Prism Software (San Diego, Calif., USA) was used. A method of nonlinear regression assuming one-site binding was used.

Ki [1]: 3.02 nM
B1: analog no. 52 (peptide)
peptide: Octanoyl-TPDINPAWYASRGIRPVGRF-NH2
SMILES: CCCCCCCC(=O)N[C@H](C(=O)N1CCC[C@H]1C(=O)N[C@@H](CC(=O)O)C(=O)N[C@H](C(=O)N[C@@H](CC(N)=O)C(=O)N1CCC[C@H]1C(=O)N[C@@H](C)C(=O)N[C@@H](Cc1c[nH]c2ccccc12)C(=O)N[C@@H](Cc1ccc(O)cc1)C(=O)N[C@@H](C)C(=O)N[C@@H](CO)C(=O)N[C@@H](CCCNC(=N)N)C(=O)NCC(=O)N[C@H](C(=O)N[C@@H](CCCNC(=N)N)C(=O)N1CCC[C@H]1C(=O)N[C@H](C(=O)NCC(=O)N[C@@H](CCCNC(=N)N)C(=O)N[C@@H](Cc1ccccc1)C(N)=O)C(C)C)[C@@H](C)CC)[C@@H](C)CC)[C@@H](C)O

Ki [1]: 3.44 nM
Ki [2]: 2.94 nM
B2: analog no. 46 (peptide)
peptide: [Nle]ETRTPDINPAWYTGRGIRPVGRF-NH2
modifications: N-terminus assumed
SMILES: CCCC[C@H](N)C(=O)N[C@@H](CCC(=O)O)C(=O)N[C@H](C(=O)N[C@@H](CCCNC(=N)N)C(=O)N[C@H](C(=O)N1CCC[C@H]1C(=O)N[C@@H](CC(=O)O)C(=O)N[C@H](C(=O)N[C@@H](CC(N)=O)C(=O)N1CCC[C@H]1C(=O)N[C@@H](C)C(=O)N[C@@H](Cc1c[nH]c2ccccc12)C(=O)N[C@@H](Cc1ccc(O)cc1)C(=O)N[C@H](C(=O)NCC(=O)N[C@@H](CCCNC(=N)N)C(=O)NCC(=O)N[C@H](C(=O)N[C@@H](CCCNC(=N)N)C(=O)N1CCC[C@H]1C(=O)N[C@H](C(=O)NCC(=O)N[C@@H](CCCNC(=N)N)C(=O)N[C@@H](Cc1ccccc1)C(N)=O)C(C)C)[C@@H](C)CC)[C@@H](C)O)[C@@H](C)CC)[C@@H](C)O)[C@@H](C)O
notes: shortened PrRP31 analog

Ki [1]: 6.93 nM
Ki [2]: 0.37 nM
B3: analog no. 49 (peptide)
peptide: Myristoyl-QHSMETRTPDINPAWYTGRGIRPVGRF-NH2
SMILES: CCCCCCCCCCCCCC(=O)N[C@@H](CCC(N)=O)C(=O)N[C@@H](Cc1c[nH]cn1)C(=O)N[C@@H](CO)C(=O)N[C@@H](CCSC)C(=O)N[C@@H](CCC(=O)O)C(=O)N[C@H](C(=O)N[C@@H](CCCNC(=N)N)C(=O)N[C@H](C(=O)N1CCC[C@H]1C(=O)N[C@@H](CC(=O)O)C(=O)N[C@H](C(=O)N[C@@H](CC(N)=O)C(=O)N1CCC[C@H]1C(=O)N[C@@H](C)C(=O)N[C@@H](Cc1c[nH]c2ccccc12)C(=O)N[C@@H](Cc1ccc(O)cc1)C(=O)N[C@H](C(=O)NCC(=O)N[C@@H](CCCNC(=N)N)C(=O)NCC(=O)N[C@H](C(=O)N[C@@H](CCCNC(=N)N)C(=O)N1CCC[C@H]1C(=O)N[C@H](C(=O)NCC(=O)N[C@@H](CCCNC(=N)N)C(=O)N[C@@H](Cc1ccccc1)C(N)=O)C(C)C)[C@@H](C)CC)[C@@H](C)O)[C@@H](C)CC)[C@@H](C)O)[C@@H](C)O
notes: lipidated shortened PrRP31 analog

Ki [1]: 8.72 nM
Ki [2]: 49.4 nM
B4: analog no. 40 (peptide)
peptide: TPDINPAWY[NMeA]SRGIRPVGRF-NH2
modifications: N-terminus assumed
SMILES: CC[C@H](C)[C@H](NC(=O)CNC(=O)[C@H](CCCNC(=N)N)NC(=O)[C@H](CO)NC(=O)[C@H](C)N(C)C(=O)[C@H](Cc1ccc(O)cc1)NC(=O)[C@H](Cc1c[nH]c2ccccc12)NC(=O)[C@H](C)NC(=O)[C@@H]1CCCN1C(=O)[C@H](CC(N)=O)NC(=O)[C@@H](NC(=O)[C@H](CC(=O)O)NC(=O)[C@@H]1CCCN1C(=O)[C@@H](N)[C@@H](C)O)[C@@H](C)CC)C(=O)N[C@@H](CCCNC(=N)N)C(=O)N1CCC[C@H]1C(=O)N[C@H](C(=O)NCC(=O)N[C@@H](CCCNC(=N)N)C(=O)N[C@@H](Cc1ccccc1)C(N)=O)C(C)C

Ki [1]: 0.58 nM
Ki [2]: 0.84 nM
B5: analog no. 45 (peptide)
peptide: Myristoyl-TPDINPAWYASRPFRPVGRF-NH2
SMILES: CCCCCCCCCCCCCC(=O)N[C@H](C(=O)N1CCC[C@H]1C(=O)N[C@@H](CC(=O)O)C(=O)N[C@H](C(=O)N[C@@H](CC(N)=O)C(=O)N1CCC[C@H]1C(=O)N[C@@H](C)C(=O)N[C@@H](Cc1c[nH]c2ccccc12)C(=O)N[C@@H](Cc1ccc(O)cc1)C(=O)N[C@@H](C)C(=O)N[C@@H](CO)C(=O)N[C@@H](CCCNC(=N)N)C(=O)N1CCC[C@H]1C(=O)N[C@@H](Cc1ccccc1)C(=O)N[C@@H](CCCNC(=N)N)C(=O)N1CCC[C@H]1C(=O)N[C@H](C(=O)NCC(=O)N[C@@H](CCCNC(=N)N)C(=O)N[C@@H](Cc1ccccc1)C(N)=O)C(C)C)[C@@H](C)CC)[C@@H](C)O

Ki [1]: 1.73 nM
Ki [2]: 2.14 nM
Binder: TPDINPAWYASRPFRPVGRF-NH2 [analog no. 44]

Ki [1]: 2.41 nM
B6: analog no. 53 (peptide)
peptide: Decanoyl-TPDINPAWYASRGIRPVGRF-NH2
SMILES: CCCCCCCCCC(=O)N[C@H](C(=O)N1CCC[C@H]1C(=O)N[C@@H](CC(=O)O)C(=O)N[C@H](C(=O)N[C@@H](CC(N)=O)C(=O)N1CCC[C@H]1C(=O)N[C@@H](C)C(=O)N[C@@H](Cc1c[nH]c2ccccc12)C(=O)N[C@@H](Cc1ccc(O)cc1)C(=O)N[C@@H](C)C(=O)N[C@@H](CO)C(=O)N[C@@H](CCCNC(=N)N)C(=O)NCC(=O)N[C@H](C(=O)N[C@@H](CCCNC(=N)N)C(=O)N1CCC[C@H]1C(=O)N[C@H](C(=O)NCC(=O)N[C@@H](CCCNC(=N)N)C(=O)N[C@@H](Cc1ccccc1)C(N)=O)C(C)C)[C@@H](C)CC)[C@@H](C)CC)[C@@H](C)O

Ki [1]: 2.41 nM
B7: analog no. 54 (peptide)
peptide: Lauroyl-TPDINPAWYASRGIRPVGRF-NH2
SMILES: CCCCCCCCCCCC(=O)N[C@H](C(=O)N1CCC[C@H]1C(=O)N[C@@H](CC(=O)O)C(=O)N[C@H](C(=O)N[C@@H](CC(N)=O)C(=O)N1CCC[C@H]1C(=O)N[C@@H](C)C(=O)N[C@@H](Cc1c[nH]c2ccccc12)C(=O)N[C@@H](Cc1ccc(O)cc1)C(=O)N[C@@H](C)C(=O)N[C@@H](CO)C(=O)N[C@@H](CCCNC(=N)N)C(=O)NCC(=O)N[C@H](C(=O)N[C@@H](CCCNC(=N)N)C(=O)N1CCC[C@H]1C(=O)N[C@H](C(=O)NCC(=O)N[C@@H](CCCNC(=N)N)C(=O)N[C@@H](Cc1ccccc1)C(N)=O)C(C)C)[C@@H](C)CC)[C@@H](C)CC)[C@@H](C)O

Ki [1]: 5.48 nM
Ki [2]: 0.45 nM
B8: analog no. 47 (peptide)
peptide: Myristoyl-[Nle]ETRTPDINPAWYTGRGIRPVGRF-NH2
SMILES: CCCCCCCCCCCCCC(=O)N[C@@H](CCCC)C(=O)N[C@@H](CCC(=O)O)C(=O)N[C@H](C(=O)N[C@@H](CCCNC(=N)N)C(=O)N[C@H](C(=O)N1CCC[C@H]1C(=O)N[C@@H](CC(=O)O)C(=O)N[C@H](C(=O)N[C@@H](CC(N)=O)C(=O)N1CCC[C@H]1C(=O)N[C@@H](C)C(=O)N[C@@H](Cc1c[nH]c2ccccc12)C(=O)N[C@@H](Cc1ccc(O)cc1)C(=O)N[C@H](C(=O)NCC(=O)N[C@@H](CCCNC(=N)N)C(=O)NCC(=O)N[C@H](C(=O)N[C@@H](CCCNC(=N)N)C(=O)N1CCC[C@H]1C(=O)N[C@H](C(=O)NCC(=O)N[C@@H](CCCNC(=N)N)C(=O)N[C@@H](Cc1ccccc1)C(N)=O)C(C)C)[C@@H](C)CC)[C@@H](C)O)[C@@H](C)CC)[C@@H](C)O)[C@@H](C)O
notes: as for B3

Ki [1]: 5.92 nM
Ki [2]: 2.61 nM
Binder: QHSMETRTPDINPAWYTGRGIRPVGRF-NH2 (shortened PrRP31 analog) [analog no. 48]
